No end group written: not given here.
Tests used:
[1] = biological target: T1, GC-C in T84 cells (Homo sapiens, UniProt P25092); assay: Cyclic GMP accumulation in T84 cells; type: cell-based; details: for bioactivity of purified urine peaks in T84 cell cyclic GMP bioassay: peptides purified from human urine, microbore HPLC C8
T1 construct: host or cells: T84 human colon carcinoma cells
Description: (§1) FIG. 3(a) and (b). FIG. 3(a) Concentration-response effect of synthetic human uroguanylin, human guanylin and E. coli ST5-18 (STa) on cyclic GMP levels in T84 cells. The cells were incubated with various concentrations of ligands for 30 min. Values represent mean±SE (n=4). FIG. 3(b) Displacement of ^125 I-STa specific binding from T84 cells by human uroguanylin, human guanylin and STa. Cells were incubated for 30 min at 37° C. with labeled STa and indicated concentrations of ligands. Specific binding (%) was determined by dividing the specifically bound ^125 I-STa at each ligand concentration by the specifically bound ^125 I-STa in the absence of ligands. Each determination represents the mean of four wells examined.
Cell Culture. A cultured human colon carcinoma cell line (T84) was obtained from the American Type Culture Collection (Rockville, Maryland) (ATCC No. CCL 248) at passage 52. Cells were grown to confluency in 24-well culture plates with a 1:1 mixture of Ham's F12 medium and Dulbecco's modified Eagle's medium (DMEM), supplemented with 10% fetal calf serum, 100 IU/ml penicillin, and 100 μg/ml streptomycin. Cells were used at passages 54-60.
Cyclic GMP determination. Monolayers of T84 cells in 24-well plates were washed twice with 1 ml/well DMEM, then incubated at 37° C. for 10 min with 0.5 ml DMEM containing 1 mM isobutylmethylxanthine, a phosphodiesterase inhibitor. Agents and fractions were then added for the indicated time as described in the results section, below. The media was then aspirated and the reaction terminated by the addition of ice cold 0.5 ml of 0.1N HC1. Aliquots were then evaporated to dryness under nitrogen and then resuspended in 5 mM sodium acetate buffer, pH 6.4. The samples were then measured for cyclic GMP by conventional RIA as described by Steiner et al. (13).

[2] = system: rat proximal colon; assay: Short-circuit current (Isc) in rat proximal colon, Ussing chamber; details: 0.2 μM, mucosal addition
Description: FIG. 4. Effect of synthetic human uroguanylin on short-circuit current (Isc) of rat colon. Effect of human uroguanylin (0.2 μM) on Isc across rat proximal colon after a mucosal addition. The response is characteristic of results from 3 other experiments.
Measurement of Short-Circuit Current (ISc) in Rat Colon. Rat proximal colon tissue, consisting of only mucosa and submucosa, was mounted between two Ussing half-chambers and bathed on both sides similar to previously reported (3). Electrical measurements were monitored with an automatic voltage clamp, and direct connecting voltage-and current-passing electrodes were used to measure trans epithelial potential difference and Isc. Tissues were equilibrated under short-circuit conditions until Isc had stabilized.

[3] = biological target: T2, receptors on T84 cells (Homo sapiens, UniProt P25092); assay: 125I-ST radioligand competitive binding assay on T84 cells; details: 30 min at 37° C., pH 5.5
T2 construct: host or cells: T84 human colon carcinoma cells
Description: as §1
Radioligand Binding Assay. ^125 I-labeled ST5-18 (^125 I-ST) was prepared by the Iodo-Gen method as previously described (3). T84 cell monolayers were washed two times with 1.0 ml per well of ice-cold binding assay buffer (Earle's medium containing 25 mM 2[N-Morpholino]ethanesulfonic acid (MES), pH 5.5). The cells were incubated for 30 min at 37° C. in 0.5 ml per well of binding assay buffer with ^125 I-ST (100,000 cpm per well) and unlabeled peptides. […] This volume was transferred to tubes and assayed for radioactivity by a multigamma counter. Results are expressed as the percentage specifically bound.

T1 sequence (P25092 24-1073): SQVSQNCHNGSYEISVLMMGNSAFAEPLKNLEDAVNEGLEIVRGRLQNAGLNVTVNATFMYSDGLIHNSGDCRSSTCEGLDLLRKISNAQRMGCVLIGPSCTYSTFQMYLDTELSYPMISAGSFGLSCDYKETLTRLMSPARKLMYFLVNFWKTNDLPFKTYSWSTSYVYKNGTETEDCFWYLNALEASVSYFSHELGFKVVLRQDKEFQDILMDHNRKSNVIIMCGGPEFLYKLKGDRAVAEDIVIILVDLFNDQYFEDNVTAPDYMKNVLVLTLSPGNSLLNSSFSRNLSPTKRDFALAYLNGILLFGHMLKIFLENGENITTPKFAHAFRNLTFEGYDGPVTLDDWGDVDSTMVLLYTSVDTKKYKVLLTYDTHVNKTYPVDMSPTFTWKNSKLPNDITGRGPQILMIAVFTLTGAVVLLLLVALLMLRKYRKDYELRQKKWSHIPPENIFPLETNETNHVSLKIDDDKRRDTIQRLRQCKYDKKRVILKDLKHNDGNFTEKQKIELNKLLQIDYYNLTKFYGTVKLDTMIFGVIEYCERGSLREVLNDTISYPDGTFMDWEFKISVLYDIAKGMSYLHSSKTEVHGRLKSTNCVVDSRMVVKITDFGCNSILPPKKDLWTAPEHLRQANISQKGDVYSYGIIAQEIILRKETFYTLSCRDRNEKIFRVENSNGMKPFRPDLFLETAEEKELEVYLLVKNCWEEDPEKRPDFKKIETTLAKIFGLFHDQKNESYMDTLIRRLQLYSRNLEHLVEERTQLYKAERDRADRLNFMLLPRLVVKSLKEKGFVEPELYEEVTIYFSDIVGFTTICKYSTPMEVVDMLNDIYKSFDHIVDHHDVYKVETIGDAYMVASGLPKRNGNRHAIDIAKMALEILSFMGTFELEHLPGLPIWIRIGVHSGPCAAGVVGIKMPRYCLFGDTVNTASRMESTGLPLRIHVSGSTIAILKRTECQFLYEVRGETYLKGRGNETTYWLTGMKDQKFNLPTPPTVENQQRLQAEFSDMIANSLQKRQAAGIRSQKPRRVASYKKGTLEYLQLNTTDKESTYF
T2 sequence (P25092 24-1073): as above

Substance	bioactivity of purified urine peaks in T84 cell cyclic GMP bioassay [1]	effect on T84 cell cyclic GMP levels ([1]; T84 cells, 30 min incubation with ligand, 1 mM isobutylmethylxanthine)	relative potency for activation of GC-C in T84 cells ([1]; T84 cells, cyclic GMP, concentration-response)	effect on short-circuit current (Isc) of rat proximal colon [2]	relative affinity, displacement of 125I-ST5-18 specific binding from T84 cells [3]
DDCELCVNVACTGCL [peak 2, peptide from human urine lacking the N-terminal asparagine, likely a degradation product of peak 1]	bioactive				
NDDCELCVNVACTGCL [human uroguanylin, sedecapeptide, endogenous regulator of intestinal guanylate cyclase, isolated from human urine and chemically synthesized]	bioactive	concentration-dependent increase	more potent than human guanylin, but less potent than ST	sustained rise in Isc	
human guanylin: first known endogenous activator of intestinal guanylate cyclase (PGTCEICAYAACTGC; ends and bridges not checked; cysteine pairing not given here; UniProt Q02747 101-115, looked up)					much lower affinity
